Test results as given in patent US12138285B2, “Cholesterol reducing compositions and methods of use thereof” (The Broad Institute, Inc., priority 2019, dated 2024).
“Also recorded” adds a separate entry of the source.

Key:
Assay type in all cases: biochemical
[1] = system: primary bile acids cholic acid and chenodeoxycholic acid; assay: Lysate experiments for cholesterol oxidoreductase activity, substrate primary bile acids; conditions: E. coli lysate expressing the enzyme
Experimental: FIG. 12A-12B CORs from human-associated gut microbes accept cholesterol and coprostanol but not primary bile acids. Activity assay with E. coli lysates (PBS, pH=7.4) expressing one of the cholesterol oxidoreductase enzymes from human-associated microbes with FIG. 12A. […] EIC for the products of both reactions are shown.
500 mL of a culture of E. coli BL21 expressing one of the cholesterol oxidoreductase homologs were pelleted by centrifugation (20 min at 7,000 g and 4° C.), resuspended in 10 mL of ice-cold phosphate-buffered saline containing one cOmplete Protease Inhibitor cocktail tablet (Roche Diagnostics) and lysed by a cell disruptor (EmulsiFlex-C3, Avestin). Cell debris was removed by ultracentrifugation (30 min at 20,000 g and 4° C.). Protein expression was confirmed by SDS-PAGE analysis using 4-20% Mini-PROTEAN TGX gels (Bio-Rad Laboratories). Gels were stained with Coomassie Blue for visualization. The clarified supernatant was used directly in the cell lysate assay described below. Cholesterol or coprostanol (5 μL of a 10 mM solution of cholesterol or coprostanol in methanol) was added to 500 μL of clarified supernatant with 100 μM of NADP^+ and NAD^+. After incubation at 37° C. for 12 h, the reaction mixtures were frozen until being analyzed using LC-MS.

cholesterol [2] = assay: Lysate experiments for cholesterol oxidoreductase activity (E. coli BL21 lysates expressing COR/HSD enzymes), substrate cholesterol; conditions: E. coli lysate expressing the enzyme, 100 μM cholesterol, 100 μM NADP+ and NAD+, 37° C. 12 h, LC-MS
Experimental: (§1) Candidate cholesterol oxidoreductase genes were amplified from genomic DNA (for E. coprostanoligenes) and cloned into pET28b. DNA was extracted from stool samples (DNeasy PowerSoil Kit, Qiagen) (for CAG:217, CAG:251 and CAG:341) or purchased from Genewiz (Ordered sequences are listed in Table 6). PCR reactions were performed with Phusion High Fidelity polymerase, and PCR products were purified (Zymoclean gel DNA recovery kit, Zymo research). The resulting gene products were assembled into pET28b using Gibson assembly and transformed into Stellar™ Competent Cells. The identities of the constructs were confirmed with DNA sequencing and transformed into E. coli BL21 strains for expression. All constructs were grown in LB with kanamycin (50 μg/mL) with the exception of the strain expressing the homolog from CAG:180 which required growth in TB for protein expression. […]
(§2) 500 mL of a culture of E. coli BL21 expressing one of the cholesterol oxidoreductase homologs were pelleted by centrifugation (20 min at 7,000 g and 4° C.), resuspended in 10 mL of ice-cold phosphate-buffered saline containing one cOmplete Protease Inhibitor cocktail tablet (Roche Diagnostics) and lysed by a cell disruptor (EmulsiFlex-C3, Avestin). […] After incubation at 37° C. for 12 h, the reaction mixtures were frozen until being analyzed using LC-MS. […]

coprostanol = assay: Lysate experiments for cholesterol oxidoreductase activity, substrate coprostanol; conditions: E. coli lysate expressing the enzyme, 100 μM coprostanol, 100 μM NADP+ and NAD+, 37° C. 12 h, LC-MS
Experimental: as §1, §2

cholesterol [3] = assay: In vitro activity assay of purified N-terminal His-tagged ECOP170 (cofactor dependence); conditions: purified enzyme 1.5 μM, HEPES pH 7.5, 100 μM cholesterol, 100 μM NADP+ or NAD+
Experimental: FIG. 11 In vitro activity assay of purified N-terminal His-tagged ECOP170 expressed in BL21 E. coli. Activity assay with ECOP170 (1.5 μM) in HEPES (pH=7.5, 50 mM, 300 mM NaCl) with 100 μM cholesterol and either 100 μM of NADP^+ (red) or 100 μM of NAD^+ (blue). EICs of 2 (rt 2.60, 385.244→108.988) are shown for both conditions.
Proteins were overexpressed using the procedure described above. Cells from 200 mL of culture were pelleted by centrifugation, resuspended in 10 mL of ice-cold lysis buffer (300 mM NaCl, 10 mM imidazole, 50 mM HEPES, pH 7.5) containing one cOmplete Protease Inhibitor cocktail tablet, and lysed by 4 min of continuous passage through a cell disruptor (EmulsiFlex-C3, Avestin) at 15,000 lbs per square inch. Cell debris was removed by ultracentrifugation (20 min at 20,000×g and 4° C.), and the cell-free extract was applied to 0.5 mL of HisPur Ni-NTA Resin (Thermo Scientific) pre-equilibrated with lysis buffer by gentle rocking at 4° C. for 2 h. Non-absorbed materials and weakly bound proteins were removed by washing the column with 2×25 mL of wash buffer (300 mM NaCl, 20 mM imidazole, 50 mM HEPES, pH 7.5). His6-tagged protein was eluted with 5 mL of elution buffer (300 mM NaCl, 200 mM imidazole, 50 mM HEPES, pH 7.5). […]

B1: ECOP170: 3β-hydroxysteroid dehydrogenase / cholesterol oxidoreductase (COR, IsmA) enzyme from E. coprostanoligenes (protein)
chain: MSTCWLQGKTVVVTGASGGMGAGIAATLIKKHGCTVIGVARNEKKMLKFVDELGETYAKQFSYELFDVSSKENWEKFAEELQEKGVKVDVLINNAGILPKFKRFDRYSYEEIERAMNINFYSCVYSVKTMLPMLLQSSTPAIINIDSSAALMTLAGTSMYSASKAALKGFTEALRVEFQGKMFVGLVCPGFTKTDIFSGQGDADMSNGAKVMDMISTDCDKMVKMIMFGIEHKTPMQVHGFDAHAMSVFNRLMPVYGSKLFSSIMRMSNVDIFKEVFSD
oxidation of primary bile acids cholic acid and chenodeoxycholic acid to keto bile acids [1]: unable to oxidize the primary bile acids cholic acid and chenodeoxycholic acid; also recorded: did not oxidize the primary bile acids cholic acid and chenodeoxycholic acid
oxidation of cholesterol (1) to cholestenone (2) (cholesterol [2]): converts cholesterol (1) to cholestenone (2); also recorded: oxidized cholesterol to 2; also recorded: oxidized cholesterol to cholestenone
oxidation of coprostanol (4) to coprostanone (3) (coprostanol): converts coprostanol (4) to coprostanone (3); also recorded: catalyzed the oxidation of coprostanol (4) to coprostanone (3); also recorded: showed activity towards coprostanol
cofactor dependence of cholesterol oxidation (cholesterol [3]): showed a strict dependence on NADP^+ and not NAD^+
